The supplement of paper PMC10567573

B1: RIPK4 (parent)
chain: RERMELLEEAKKMEMAKFRYILPV
B2: MTMR15 (parent)
chain: FSPDFTLRNTLKSTSEDSLVKQEC

Variants of: B1
Experiment: protein stability index of a GFP-peptide fusion (GPS, HEK-293T) (PSI 1-6); higher = more stable
Conditions: c terminus: a fixed tail appended
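Note: lentivirally expressed fusions sorted by FACS into six bins by GFP to DsRed ratio, PSI derived from sequencing read proportions per bin multiplied by bin number.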

Protein stability index: each site, then its substitutions
L7: F 3.4 | I 3.42 | K 3.99 | M 3.48 | N 3.54 | P 4.01 | Q 3.87 | S 3.66 | T 4.19 | V 2.78 | W 2.43 | Y 2.52
E8: C 3.01 | D 2.86 | F 2.68 | G 2.27 | H 2.67 | I 2.11 | K 3.42 | L 2.11 | M 2.69 | N 2.04 | P 3.14 | Q 2.03 | R 3.5 | S 3.06 | T 3.16 | V 1.69 | W 3.05 | Y 2.62
E9: A 2.85 | C 2.12 | D 3.91 | F 2.37 | G 3.79 | H 2.8 | I 2.57 | K 3.65 | L 1.94 | M 2.78 | N 3.44 | P 3.42 | Q 3.31 | R 2.4 | S 3.08 | T 2.93 | V 2.43 | W 2.16 | Y 2.49
A10: C 4.69 | D 3.99 | E 3.54 | F 3.48 | H 2.94 | I 2.82 | K 4.38 | L 3.33 | M 3.32 | N 3.85 | P 3.28 | Q 3.79 | R 3.66 | S 3.69 | T 2.81 | V 4.15 | W 3.58 | Y 3.93
K11: A 3.07 | C 2.24 | D 4.09 | E 3.97 | F 2.67 | G 3.04 | H 3.05 | I 2.39 | L 4.66 | M 2.45 | N 3.08 | P 2.91 | Q 3.17 | R 2.81 | S 3.37 | V 2.32 | W 2.51 | Y 1.08
K12: A 3.43 | C 3.35 | D 3.3 | E 3.46 | F 2.5 | G 2.36 | H 3.36 | I 2.37 | L 2.21 | M 2.78 | N 3.23 | P 3.5 | Q 3.41 | S 2.75 | T 2.9 | V 2.82 | W 2.65 | Y 2.42
M13: A 3.1 | E 3.19 | F 3.01 | G 3.56 | H 3.13 | I 3.59 | K 3.84 | L 3.37 | N 3.8 | P 2.34 | Q 3.31 | S 3.51 | T 3.06 | V 2.85 | W 3.14 | Y 2.92
E14: A 2.78 | C 3.63 | D 3.8 | F 1.86 | G 2.44 | I 2.16 | K 2.21 | L 2.44 | M 2.89 | N 2.79 | P 3.29 | Q 3.12 | R 2.06 | S 2.86 | T 2.65 | V 1.71 | W 2.92 | Y 2.03
M15: E 4.61 | F 3.91 | G 3.59 | H 4.28 | I 4.15 | K 3.93 | L 3.48 | P 4.15 | Q 3.34 | R 3.97 | S 4.59 | V 3.02 | W 2 | Y 3.41
A16: C 2.54 | E 2.9 | F 2.29 | G 3.31 | H 4.27 | I 3.02 | K 3.8 | N 4.29 | P 3.49 | Q 3.62 | T 2.85 | V 3.03 | W 2.58 | Y 3.32
K17: A 1.87 | C 2.01 | D 2.84 | F 1.26 | G 2.94 | H 2.68 | I 2.72 | L 2.04 | M 3.5 | N 1.01 | P 1.86 | Q 3.5 | S 2.99 | T 3.1 | V 2.75 | W 2.29 | Y 2.8
F18: A 3.16 | C 2.75 | E 3.55 | G 3.69 | I 2.79 | K 4.06 | M 2.75 | N 4.03 | P 3.86 | Q 3.61 | T 3.81
R19: A 1.96 | C 2.51 | D 3.47 | E 3.28 | F 1.15 | G 3.03 | H 2.6 | I 1.27 | K 3.04 | L 2.14 | M 1.97 | N 2.94 | P 2.13 | Q 3.65 | S 2.86 | T 2.67 | Y 2.38
Y20: A 3.73 | C 2.67 | D 2.55 | E 4.16 | F 2.27 | G 3.74 | H 2.83 | I 1.93 | L 2.03 | M 2.18 | N 3.05 | P 3.57 | Q 2.34 | S 3.91 | T 3.4 | V 2.59 | W 2.24
I21: E 4.11 | F 4.25 | G 3.68 | H 2.94 | K 3.45 | L 3.42 | N 3.85 | R 3.2 | W 2.05 | Y 2.18
L22: A 4.27 | I 5.51 | K 4.1 | M 3.57 | N 3.07 | P 4.95 | Q 3.69 | R 4.07 | S 3.28 | W 2.53
P23: C 3.02 | D 2.03 | E 2.7 | G 1.95 | H 2.9 | I 2.09 | K 1.83 | M 2 | N 1.63 | Q 1.69 | R 3.69 | S 3.96 | V 2.29
V24: D 3.64 | E 4.32 | F 3.16 | H 3.24 | K 3.58 | M 3.68 | R 3.65 | S 3.7 | T 3.78

Variants of: B2
Experiment: as above
Conditions: c terminus: a fixed tail appended

Protein stability index: each site, then its substitutions
T10: Q 1.59
K12: G 2.24 | M 1.81 | N 1.41 | E 2.67
S2: Q 3.32 | F 4.04 | C 2.19
L19: K 1.85 | C 2.15 | H 2.32 | Y 2.24 | Q 3.03
S13: N 2.69 | A 1.9
L11: I 2.83 | H 1.76
Q22: S 1.86 | C 2.06
E23: P 2.04 | G 2.26
K21: I 2.21 | L 2.04 | A 2.81 | R 3.02
N9: L 2.02 | Y 3.7 | D 1.54
S18: T 2.21 | V 1.84 | C 1.79 | R 2.3
L7: K 2.39 | M 3.06 | N 1.91 | Q 2.16
S15: P 1.83
F1: N 5.19 | D 5.25
P3: D 3.91 | M 1.99 | W 1.97
T6: S 2.27
F5: A 3.75 | C 3.42 | G 1.99
D4: V 2.01 | H 1.95 | K 2.23
R8: S 1.9 | M 1.77 | L 2.36 | T 1.73
E16: D 2.54 | V 2.68 | P 2.38 | N 1.93
D17: T 2.22 | P 2.08 | Y 2.11 | G 2.03
T14: C 2.78
C24: V 2.03 | Q 2.87
V20: N 2.2
